Reference: patent US8841274B2, “Protein arginine N-methyltransferase-5 method of cancer treatment” (priority 2009, dated 2014)

Assays:
[1] = test system: p73-luciferase or cyclinE-luciferase; test: Reporter assay with E2F-responsive promoters; format: cell-based; details: U2OS cells, 48 h, equivalent protein level; compared to wild-type E2F-1; n=3
Method: To further explore the role of arginine methylation in the transcription properties of E2F-1, wild-type E2F-1 was compared with the KK and KKK mutants in a reporter-based transfection assay, using E2F-responsive promoters derived from E2F target genes. The assay was performed under conditions in which each mutant protein was expressed at an equivalent level to wild-type E2F-1 (FIG. 4aii and bii), thus ruling out any difference in activity that could be attributed to protein levels. […] FIGS. 4a and b show the transcription properties of wild-type E2F-1, KK and KKK mutants. U2OS cells were transfected with expression vectors encoding WT or mutant E2F-1 protein, together with p73-luciferase (A) or cyclinE-luciferase (B) for 48 h as indicated, and pCMV-βgal to monitor transfection efficiency. Relative luciferase activity (luciferase/βgal) is shown together with expression level of ectopic proteins; n=3. […] PRMT5 (P) or control (C) non-targeting siRNA was transfected into U2OS cells together with p73-luciferase (i) or cyclinE-luciferase (ii) for 48 h, together with pCMV-βgal to monitor transfection efficiency. Relative luciferase activity is shown together with expression level of the ectopic proteins.
Cells were transfected with expression vectors (1 μg) encoding WT or the mutant E2F-1 proteins as indicated with E2F responsive luciferase reporters, namely p73-luciferase or cyclinE-luciferase, together with pCMV-βgal to monitor transfection efficiency. Cells were harvested, lysed 48 h post-transfection and luciferase activity measured as previously described (Janson et al 2008).

[2] = test system: U2OS cells; test: Apoptosis (sub-G1) by FACS in U2OS cells; format: cell-based; details: U2OS cells, expression vectors 48 h; relative to wild-type E2F-1; n=2
Method: Whether arginine methylation influences E2F-1-dependent apoptosis was investigated by comparing the ability of wild-type E2F-1 to the KK and KKK mutants to induce cells with a sub-G1 DNA content (Stevens et al 2003). […] U2OS cells were transfected with expression vectors encoding wild-type E2F-1, KK and KKK as indicated for 48 h and analysed by FACS as described. The graph represents the relative change in sub-G1 populations compared to the empty vector control treatment; n=2.
The graph (i) represents the relative number of sub-G I cells (compared to the control treatment) in the indicated conditions; and (ii) the level of PRMT5 and E2F-1; n=3.
PRMT5 (P) or control (C) non-targeting siRNA (25 nM) was transfected into HCT116 p53+/+ (i), HCT116 p53−/− (ii) or U2OS (iii) cells and the cells were harvested 72 h post-transfection and analysed by FACS. The graph represents the actual number of sub-G1 cells in the indicated conditions, and the immunoblot the level of PRMT5 and actin control; n=3.
PRMT5 (P), E2F-1 (E) or control (C) non-targeting siRNA was transfected into U2OS cells and harvested 72 h post-transfection and analysed by FACS as described.
Cells were transfected with the indicated expression vectors together with pBB14-GFP (for 48 h) to monitor transfection efficiency or siRNA (for 48 h or 72 h) with or without treatment of the DNA damage agent for the last 16 h. Then, cells were fixed and stained with propidium iodide and analyzed by Flow Cytometry.

[3] = target: T1, PRMT5 (Homo sapiens, UniProt O14744); test: In vitro methyltransferase assay of E2F-1 proteins; format: biochemical; set-up: made in house; host or cells: U2OS cells (transient transfection, anti-Flag immunoprecipitation, elution); details: about 1 μg protein, 3H labeled SAM; mutants compared with wild-type E2F-1
Method: To assess whether the RGRGR motif was a direct target for PRMT5 methylation, a series of mutant derivatives of E2F-1 were made in which each arginine (R) residue was substituted with a lysine residue (K; FIG. 1a), and the ability of the mutant derivative to be methylated in vitro then assessed. […] In FIG. 1b(i) each of the indicated proteins (about 1 μg) was used in the methylation reaction. In vitro methylated samples were analysed by SDS-PAGE as described below. E2F-1 is indicated. In FIG. 1b(ii) samples in FIG. 1b(i) were counted (3H cpm as indicated). Histones treated with PRMT5 served as the positive control. The data shown provide one example taken from two different experiments.
Flag-PRMT5 plasmid was transfected into U2OS cells for 48 h. Cells were lysed and Flag-PRMT5 was immunoprecipitated with agarose beads and then eluted. The elute was mixed with recombinant substrates (GST fusion proteins or histones) in methylation reaction buffer (50 mM Tris, 0.1 mM EDTA, 50 mM NaCl) with ^3H labeled SAM (as —CH3 group donor) to a volume of 40 μl and incubated at 30° C. for 90 min. Half of the reactions were then spotted onto p81 membrane circles (Whatman) and air dried. The membranes were then washed three times, 5 min each in 50 ml of wash buffer (46 mM NaHCO3, 4 mM Na2CO3, pH 9.2). After washing briefly with acetone, membranes were air dried, placed in scintillation vials, immersed in scintillation fluid (Beckman Coulter) and disintegrations per minute (DPM) measured in a scintillation counter. The other half of the reactions were run on SDS-PAGE gel and used to detect ^3H auto-radioisotope/methylation signal.
Target sequence in this assay (O14744 whole entry): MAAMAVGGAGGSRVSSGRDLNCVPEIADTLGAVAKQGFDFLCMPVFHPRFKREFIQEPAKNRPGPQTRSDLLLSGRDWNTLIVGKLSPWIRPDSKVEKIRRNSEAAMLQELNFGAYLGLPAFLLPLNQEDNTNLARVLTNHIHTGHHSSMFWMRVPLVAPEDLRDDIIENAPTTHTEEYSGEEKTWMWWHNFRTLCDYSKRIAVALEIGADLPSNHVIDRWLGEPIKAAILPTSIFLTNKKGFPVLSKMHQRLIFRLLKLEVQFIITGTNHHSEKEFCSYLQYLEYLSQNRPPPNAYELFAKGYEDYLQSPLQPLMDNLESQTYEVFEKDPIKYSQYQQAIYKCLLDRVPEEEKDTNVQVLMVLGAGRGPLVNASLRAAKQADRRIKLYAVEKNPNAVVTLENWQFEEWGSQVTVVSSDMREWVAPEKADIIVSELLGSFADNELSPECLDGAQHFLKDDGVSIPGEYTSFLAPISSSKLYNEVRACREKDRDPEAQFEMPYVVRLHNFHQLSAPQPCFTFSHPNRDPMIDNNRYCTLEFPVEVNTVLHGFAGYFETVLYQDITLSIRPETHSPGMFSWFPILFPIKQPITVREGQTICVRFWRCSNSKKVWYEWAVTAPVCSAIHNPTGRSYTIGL
Target sequence in this assay (Q9BQA1 whole entry partner): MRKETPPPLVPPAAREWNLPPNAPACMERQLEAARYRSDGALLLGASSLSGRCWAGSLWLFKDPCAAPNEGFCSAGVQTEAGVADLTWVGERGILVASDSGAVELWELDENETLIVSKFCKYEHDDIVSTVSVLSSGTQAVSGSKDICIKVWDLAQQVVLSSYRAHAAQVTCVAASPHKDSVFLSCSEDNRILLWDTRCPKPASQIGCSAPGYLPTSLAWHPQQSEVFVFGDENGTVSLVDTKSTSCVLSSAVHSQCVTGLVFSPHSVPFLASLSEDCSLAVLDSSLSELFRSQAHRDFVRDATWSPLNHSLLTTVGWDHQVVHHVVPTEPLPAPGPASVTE

[4] = target: T1, PRMT5; test: GST binding assay with U2OS cell lysate, PRMT5 immunoblot; set-up: The indicated GST proteins were incubated with U2OS cell lysate; endogenous in cells; host or cells: U2OS; details: GST-E2F-1 proteins incubated with U2OS cell lysate
Method: It was then assessed whether E2F-1 could interact with PRMT5 and thereafter the role of each R residue in mediating the interaction. […] The indicated GST proteins were incubated with U2OS cell lysate, and bound proteins immunoblotted using anti-GST (for input GST), DP-1 or PRMT5 antibodies. Binding to DP-1, the major heterodimeric partner for E2F-1 (Stevens and La Thangue 2003), served as a control since it bound equally to each of the E2F-1 proteins.
GST or GST tagged proteins (10 μg each) were incubated with agarose beads and damaged or undamaged U2OS cell lysates for 3 h. Beads were then washed with TNN buffer 3 times. SDS sample buffer was added to beads and samples were analysed by immunoblotting.
Target sequence in this assay (O14744 whole entry): as the sequence (O14744 whole entry) above

[5] = target: T2, DP-1 (Homo sapiens, UniProt Q14186); test: Co-immunoprecipitation of ectopic E2F-1 with DP-1 in U2OS cells; format: cell-based; details: expression vector transfected into U2OS cells, HA11 IP
T2 construct: endogenous in cells; host or cells: U2OS
T2 sequence (Q14186 1-410): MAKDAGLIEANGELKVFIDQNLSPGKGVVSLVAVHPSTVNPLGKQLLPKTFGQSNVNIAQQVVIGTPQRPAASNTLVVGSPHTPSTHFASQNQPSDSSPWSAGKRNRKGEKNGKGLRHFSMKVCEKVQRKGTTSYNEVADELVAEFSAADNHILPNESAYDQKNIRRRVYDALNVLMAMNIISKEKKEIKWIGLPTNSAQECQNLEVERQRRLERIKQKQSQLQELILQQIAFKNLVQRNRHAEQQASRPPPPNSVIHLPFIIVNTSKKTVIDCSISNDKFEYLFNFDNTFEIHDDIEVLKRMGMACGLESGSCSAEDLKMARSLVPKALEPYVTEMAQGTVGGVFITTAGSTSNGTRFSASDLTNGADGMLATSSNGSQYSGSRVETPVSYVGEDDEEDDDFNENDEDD
Description: (§1) To establish whether E2F-1 was able to bind to PRMT5 in cells, the interaction between ectopic wild-type E2F-1 or KKK with PRMT5 was studied. […] Either a wild-type E2F-1 expression vector or a KKK expression vector was transfected into U2OS cells, and HA11 antibody was used for immunoprecipitation (IP) followed by immunoblotting with HA11 (E2F-1), PRMT5 or DP-1 as indicated. The level of input (In) protein is indicated. […] In contrast, binding to DP-1 was equivalent for both wild-type E2F-1 and KKK. […] Further, the RGRGR motif is necessary for the interaction, which also encompasses the site of PRMT5 methylation.
(§2) Cells were either left untransfected or transfected with expression vectors as indicated. At 48 h post transfection, cells were harvested in TNN buffer (50 mM Tris-HC1 [pH 7.4], 150 mM NaCl, 5 mM EDTA, 0.5% Ipegal, 50 mM NaF, 0.2 mM sodium orthovanadate and protease inhibitor cocktail (1 mM PMSF, leupeptin [1 μg/ml], aprotinin [1 μg/m1], and pepstatin A [1 μg/ml])) and rotated at 4° C. for 30 min to 1 h. The cell lysate was then homogenised, centrifuged at 11000 rpm for 10 min to remove cell debris and the supernatant collected. All lysates were normalized for protein concentration and, where appropriate, for transfection by β-galactosidase activity. […] Enhanced chemi-luminescence (Pierce Biotechnology, Rockford, Ill.) was used to visualize antibody binding.

[6] = target: T1, PRMT5; test: Co-immunoprecipitation of ectopic E2F-1 with PRMT5 in U2OS cells; format: cell-based; set-up: The indicated GST proteins were incubated with U2OS cell lysate; endogenous in cells; host or cells: U2OS; details: expression vector transfected into U2OS cells, HA11 IP
Description: as §1, §2
Target sequence in this assay (O14744 whole entry): as the sequence (O14744 whole entry) above

KK: methylation-defective E2F-1 protein containing the mutations R111K and R113K
transcriptional activity (relative luciferase activity) [1]: increased transcriptional activity | apoptosis (sub-G1 population) [2]: increased levels of apoptosis | in vitro methylation by PRMT5 [3]: could not be methylated by PRMT5 | binding to PRMT5 [4]: completely devoid of PRMT5 binding

R109K: mutant E2F-1 with arginine 109 substituted with lysine
in vitro methylation by PRMT5 [3]: reduced methylation | binding to PRMT5 [4]: significant PRMT5 binding activity

R111K: mutant E2F-1 with arginine 111 substituted with lysine
in vitro methylation by PRMT5 [3]: greater level of reduction | binding to PRMT5 [4]: compromised PRMT5 binding

R113K: mutant E2F-1 with arginine 113 substituted with lysine
in vitro methylation by PRMT5 [3]: greater level of reduction | binding to PRMT5 [4]: compromised PRMT5 binding

wild-type E2F-1: E2F-1 protein, SEQ ID NO:3, used as GST fusion or HA-tagged expression vector
binding to DP-1 in cells [5]: equivalent | in vitro methylation by PRMT5 [3]: could be methylated in vitro | binding to PRMT5 [4]: bound to PRMT5 | co-immunoprecipitation with PRMT5 [6]: co-immunoprecipitated with PRMT5
